Experimental findings from article PMC4627693 are described below.

The subject of this series is Cys-Srctide (Biotin-ZZICGEFRRR). As to the kind of experiment: cross-linking.

For the substance c-Src tyrosine kinase (recombinant), the “percent conversion to crosslinked product” value is given as 40% conversion in 25 minutes.
